Data as given in patent US20210102192A1 (TWIST BIOSCIENCE, published 2021).

What was measured:
[1] = target: T1, Prostaglandin D2 receptor 2 (CRTH2R) (human, UniProt Q9Y5Y4 1-395); assay: cell-based or functional assay
T1 sequence: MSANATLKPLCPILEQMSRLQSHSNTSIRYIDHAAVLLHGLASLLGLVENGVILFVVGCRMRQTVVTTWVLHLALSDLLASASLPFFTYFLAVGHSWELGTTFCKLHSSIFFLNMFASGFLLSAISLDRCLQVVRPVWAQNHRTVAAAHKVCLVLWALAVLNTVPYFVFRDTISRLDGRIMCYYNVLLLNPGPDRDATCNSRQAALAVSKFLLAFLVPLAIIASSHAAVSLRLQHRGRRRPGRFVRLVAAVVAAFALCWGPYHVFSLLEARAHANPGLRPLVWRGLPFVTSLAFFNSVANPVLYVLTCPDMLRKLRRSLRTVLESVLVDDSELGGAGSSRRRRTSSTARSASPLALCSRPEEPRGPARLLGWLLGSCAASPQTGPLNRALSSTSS

[2] = target: T2, Prostaglandin D2 receptor 2 (CRTH2R) (UniProt Q9Y5Y4 1-395); assay: FACS binding; CHO CRTH2R-positive cells
T2 chain: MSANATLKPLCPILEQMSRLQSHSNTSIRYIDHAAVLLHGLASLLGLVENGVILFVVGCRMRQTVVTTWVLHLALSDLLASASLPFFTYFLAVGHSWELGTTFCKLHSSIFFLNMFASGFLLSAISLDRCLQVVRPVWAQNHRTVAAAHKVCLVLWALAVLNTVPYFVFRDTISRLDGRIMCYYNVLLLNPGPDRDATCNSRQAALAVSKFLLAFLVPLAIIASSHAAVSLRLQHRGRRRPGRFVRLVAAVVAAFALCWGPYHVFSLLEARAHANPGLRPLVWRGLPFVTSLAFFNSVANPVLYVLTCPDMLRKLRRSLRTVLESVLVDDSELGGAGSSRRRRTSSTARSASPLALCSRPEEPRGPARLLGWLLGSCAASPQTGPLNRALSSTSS

[3] = target: T2, Prostaglandin D2 receptor 2 (CRTH2R); assay: FACS binding; CRTH2R-positive cells

B1: CRTH2-50 (antibody, V domains shown)
VH: QVQLVQSGAEVKKPGSSVKVSCKASGGTFSSYALSWVRKAPGQGLEWMGGTIPIFGTVNYAQKFQGRVTITADESTSTAYMELSSLRSEDTAVYYCARANQHFTRVIGQPSPAVPSRGYIYHGYHYYGMDVWGQGTLVTVSS
VL: QSALTQPASVSGSPGQSITISCTGTSSDIGGYNFVSWYQQHPGKAPKLMIYDVSNRPQGVSNRFSGSKSGNTASLTISGLQAEDEADYYCSSYTSSNTYVVFGGGTKLTVL
IC50 fold difference of the PGD2 dose response curve (cAMP assay, 100 nM IgG) [1]: > 2 fold | EC50 [2]: 19.6 nM

B2: CRTH2-41-51 (Fc fusion)
chain: EVQLVESGGGLVQPGGSLRLSCAASGGIFRFNAMGWFRQAPGKERELVAGISGSGGDTYYADSVKGRFTISADNSKNTAYLQMNSLKPEDTAVYYCAAFRGIMRPDWGQGTLVTVSS
EC50 [3]: 0.181 nM
